Consider four molecules from patent publication US20160347844A1 (Dana-Farber, published 2016).

The labels stand for the following.
B3: mPD-L2-hIgG (R&D) (Fc fusion, mouse, UniProt Q9WUL5 20-219, looked up)
chain: LFTVTAPKEVYTVDVGSSVSLECDFDRRECTELEGIRASLQKVENDTSLQSERATLLEEQLPLGKALFHIPSVQVRDSGQYRCLVICGAAWDYKYLTVKVKASYMRIDTRILEVPGTGEVQLTCQARGYPLAEVSWQNVSVPANTSHIRTPEGLYQVTSVLRLKPQPSRNFSCMFWNAHMKELTSAIIDPLSRMEPKVPR
notes: The text of the result says only 'PD-L2-Ig'; also called PD-L2-Ig; mPD-L2-Ig; not shown: human IgG part of the bought fusion protein

The target of assay [1] is T1, recombinant mRGMb-HIS (R&D) (mouse, UniProt Q7TQ33 49-415, limits assumed).
T1 construct: Bought (R&D); also called monomeric mRGMb-HIS; not shown: HIS tag
T1 sequence: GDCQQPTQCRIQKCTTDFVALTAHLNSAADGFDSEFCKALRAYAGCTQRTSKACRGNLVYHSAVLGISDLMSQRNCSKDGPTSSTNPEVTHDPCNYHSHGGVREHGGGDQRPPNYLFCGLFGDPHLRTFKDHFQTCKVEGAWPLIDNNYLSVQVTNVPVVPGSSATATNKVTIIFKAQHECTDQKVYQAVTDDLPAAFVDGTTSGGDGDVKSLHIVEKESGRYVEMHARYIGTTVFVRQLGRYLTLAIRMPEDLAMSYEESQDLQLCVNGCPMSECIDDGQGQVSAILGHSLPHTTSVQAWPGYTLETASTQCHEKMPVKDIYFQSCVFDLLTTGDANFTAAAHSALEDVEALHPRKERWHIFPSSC
Description: ELISA, BMP-2-coated plate, mRGMb-HIS plus PD-L2-Ig, anti-hIgG-HRP. The procedure:
(§1) To determine if RGMb binds PD-L2 and BMP-2/4 simultaneously, 96-well ELISA plates were coated with BMP-2/4 as above. mPD-L2-hIgG1/IgA, mPD-L2-hIgG (R&D), mPD-L1-hIgG (R&D) or control-Ig fusion proteins at 10 µg/ml were preincubated with 10 μg/ml mRGMb-HIS (R&D) or buffer alone for 15 min. at room temperature (RT), then added to the plates and incubated for 1h at 37° C. Alternatively, 10 μg/ml mRGMb-HIS (R&D) or buffer alone was added first to the plates and incubated for 1h at 37° C. After wash, mPD-L2-Ig or control-Ig fusion proteins were added and incubated for 1 h at 37° C. Fab₂ goat anti-hIgG-HRP (Jackson ImmunoResearch Laboratories) at 1:10000 was used for detection.

Assay [2] has as its target B3. The experiment in a line: ELISA, PD-L2-Ig added to BMP-2-coated plate without RGMb, anti-hIgG-HRP. On the procedure: as §1
Assay [3] has as its target B3. The experiment in a line: ELISA, PD-L2-Ig added to BMP-4-coated plate without RGMb, anti-hIgG-HRP (FIG. 1E).
Source text: (§2) FIG. 1 includes nine panels, identified as panels (A), (B), (C), (D), (E), (F), (G), (H), and (I), which show the blocking capacities of RGMb and PD-L2 mAbs and a model for RGMb, PD-L2, Neogenein, BMP, and BMP-receptor interactions. Panels A-C show the capacities of RGMb mAbs and PD-L2 mAbs to block RGMb binding to PD-L2 or to block PD-1 to PD-L2, as determined by cell conjugation assay. […] Binding of mRGMb-HIS was detected by anti-penta-HIS-HRP. […] Binding of Ig fusion proteins was detected with anti-hIgG-HRP. Similar results were also seen for BMP-2. […] Data shown in Panels 1A-1C and 1F-1H are representative of 2 or more independent experiments.
as §1
(In general: ELISA stands for enzyme-linked immunosorbent assay.)

Assay [4] addresses T1, recombinant mRGMb-HIS (R&D). Description: ELISA, BMP-4-coated plate, mRGMb-HIS plus PD-L2-Ig, anti-hIgG-HRP.
Source text: as §2, §1

For assay [5] the target is unchanged. Description: ELISA, PD-L2-Ig captured through mRGMb-HIS on BMP-2/4-coated plate, anti-hIgG-HRP. The procedure: as §1
For assay [6], the target named is T2, mouse RGMb on mRGMb transfected 300 cells (mouse, UniProt Q7TQ33 49-415).
T2 construct: also called 300-mRGMb cells; DRAGON
T2 sequence: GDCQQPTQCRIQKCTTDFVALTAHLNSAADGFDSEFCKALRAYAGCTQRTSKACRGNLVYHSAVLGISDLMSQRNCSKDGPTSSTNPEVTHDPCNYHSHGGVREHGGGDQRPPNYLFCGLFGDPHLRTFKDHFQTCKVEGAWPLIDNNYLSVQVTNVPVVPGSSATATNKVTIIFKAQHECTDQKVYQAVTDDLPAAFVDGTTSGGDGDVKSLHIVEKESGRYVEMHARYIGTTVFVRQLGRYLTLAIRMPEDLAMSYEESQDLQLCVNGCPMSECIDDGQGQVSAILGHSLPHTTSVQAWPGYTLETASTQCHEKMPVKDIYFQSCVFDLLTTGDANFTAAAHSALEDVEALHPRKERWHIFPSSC
The experiment in a line: cell conjugation assay / flow cytometry / ELISA of FIG. 1. (In general: Flow cytometry measures light scatter and fluorescence of single cells or particles in a stream.)

B1: recombinant mouse BMP-2 (GIBCO) (ligand)
chain: QAKHKQRKRLKSSCKRHPLYVDFSDVGWNDWIVAPPGYHAFYCHGECPFPLADHLNSTNHAIVQTLVNSVNSKIPKACCVPTELSAISMLYLDENEKVVLKNYQDMVVEGCGCR
notes: Bought; also called mBMP-2
As to B1, the values for the binding result in assay [1] and in assay [2] were “binds” and “no binding”, respectively.

B2: recombinant mouse BMP-4 (R&D) (ligand)
chain: SPKHHPQRSRKKNKNCRRHSLYVDFSDVGWNDWIVAPPGYQAFYCHGDCPFPLADHLNSTNHAIVQTLVNSVNSSIPKACCVPTELSAISMLYLDEYDKVVLKNYQEMVVEGCGCR
notes: Bought; also called mBMP-4
With B2, the binding result in assay [3] is reported as “no binding”; in assay [4] it was “binds”.

With B3, the binding result in assay [5] was “binds”.

B4: mouse PD-L2 on mPD-L2 transfected 300 cells (ligand, UniProt Q9WUL5 20-247, looked up)
chain: LFTVTAPKEVYTVDVGSSVSLECDFDRRECTELEGIRASLQKVENDTSLQSERATLLEEQLPLGKALFHIPSVQVRDSGQYRCLVICGAAWDYKYLTVKVKASYMRIDTRILEVPGTGEVQLTCQARGYPLAEVSWQNVSVPANTSHIRTPEGLYQVTSVLRLKPQPSRNFSCMFWNAHMKELTSAIIDPLSRMEPKVPRTWPLHVFIPACTIALIFLAIVIIQRKRI
notes: whole, on cells; also called 300-mPD-L2
For the molecule B4, in assay [6], the binding result is “binds”.
